Data taken from patent US20250270301A1 (GEN2 NEUROSCIENCE, published 2025).

Experiments:
[1] = molecular target: T1, Bovine serum albumin (bovine, UniProt P02769 25-607); test: ELISA on 1% BSA, HEK supernatant, anti-human IgG-HRP, n=1
T1 construct: also called BSA
Protocol: FIG. 7. A panel of humanised anti-tau IgG bind to full length recombinant 2N4R tau in an ELISA format. Supernatants from HEK cells transiently transfected with each IgG clone were tested at 1:100 for binding to full length recombinant 2N4R tau (solid bars). […] Binding of anti-tau hIgG1 was detected using an HRP-conjugated anti-human secondary antibody and data are shown from a representative experiment (n=1 replicate).
Antigen was removed from wells and the plates were then blocked for 1 hour at RT with 5% dried milk in 1×TBS. Blocking solution was removed, HEK293 cell supernatant (1:100 in 1% BSA/1×TBS) was added to relevant wells, and plates were incubated for 1 hour at RT with gentle shaking. Plates were then washed four times with TBS/0.1% Tween (TBST). Goat anti-human IgG-HRP antibody (Thermo Fisher Scientific, Waltham, MA, USA), diluted 1:2000 in 5% milk/TBS, was added to each well and plates were incubated for 1 hour at RT with gentle shaking before being washed four times with TBST. 3,3′,5,5′-tetramethylbenzidine (TMB) ELISA solution was added to each well and plates were incubated for 15 mins at RT. An equal volume of 1 M sulfuric acid was added to each well and OD was measured at 450 nm.

[2] = molecular target: T2, full length recombinant human 2N4R tau (human, UniProt P10636 1-758); test: SPR SCK, IgG on Protein A, tau in flow
T2 construct: bought from rPeptide; pHrodo Red maleimide-labelled where it stands in uptake assays; also called tau1-441; full length tau
Protocol: 21.5 Assessment of antibody binding to tau (Biacore SCK analysis): Binding of anti-tau hIgG1 to full length recombinant 2N4R tau (Rpeptide; SEQ ID NO: 2) was assessed using the Biacore T200 (GE Healthcare, Chicago, IL, USA) running Biacore T200 Evaluation Software V2.0.1. hIgG1 were immobilised on a Protein A capture sensor chip in running buffer (HBS-EP+ buffer containing 1 mg/mL BSA) at 25° C., captured to ˜50 RU at 10 μL/min. For single-cycle kinetics experiments, recombinant 2N4R tau was flowed at concentrations ranging from 1.25 nM to 10 nM (2-fold dilutions) with an association time of 60 s and a dissociation time of 200 s. Curves were compared to a reference cell that was mock immobilized (no antibody present).

T1 sequence (P02769 25-607 limits assumed): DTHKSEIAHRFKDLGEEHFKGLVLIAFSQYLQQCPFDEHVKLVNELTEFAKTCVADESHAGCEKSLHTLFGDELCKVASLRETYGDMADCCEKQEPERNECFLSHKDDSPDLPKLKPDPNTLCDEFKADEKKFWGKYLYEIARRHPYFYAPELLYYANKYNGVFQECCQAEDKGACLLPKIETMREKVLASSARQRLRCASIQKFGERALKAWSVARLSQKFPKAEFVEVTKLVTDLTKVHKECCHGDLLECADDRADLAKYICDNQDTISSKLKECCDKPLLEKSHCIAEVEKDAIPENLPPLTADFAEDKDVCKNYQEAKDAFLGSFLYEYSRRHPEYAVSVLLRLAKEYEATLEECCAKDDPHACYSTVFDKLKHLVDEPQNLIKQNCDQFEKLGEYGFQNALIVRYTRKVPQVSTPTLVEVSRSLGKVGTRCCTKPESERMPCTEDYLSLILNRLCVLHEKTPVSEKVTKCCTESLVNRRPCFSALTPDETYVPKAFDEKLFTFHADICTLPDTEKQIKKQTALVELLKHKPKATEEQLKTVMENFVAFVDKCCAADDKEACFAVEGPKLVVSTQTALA
T2 sequence (P10636 other isoform, or with tags, fused parts or gaps limits assumed): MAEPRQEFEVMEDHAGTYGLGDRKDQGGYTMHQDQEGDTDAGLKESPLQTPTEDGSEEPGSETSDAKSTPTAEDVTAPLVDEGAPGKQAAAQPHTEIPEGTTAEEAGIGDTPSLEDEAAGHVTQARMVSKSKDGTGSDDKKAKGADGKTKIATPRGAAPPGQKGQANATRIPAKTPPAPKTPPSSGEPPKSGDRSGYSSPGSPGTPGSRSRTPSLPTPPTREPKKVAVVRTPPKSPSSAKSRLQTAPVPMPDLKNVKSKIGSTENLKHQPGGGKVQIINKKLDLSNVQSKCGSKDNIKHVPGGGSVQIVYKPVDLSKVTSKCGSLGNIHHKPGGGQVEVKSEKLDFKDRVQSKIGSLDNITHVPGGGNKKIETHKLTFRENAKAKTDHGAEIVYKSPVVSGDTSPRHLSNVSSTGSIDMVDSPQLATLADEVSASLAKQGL

Binder	binding result [1]	Kd [2] [nM]	Relative KD (to VH0VK0) [2]	koff [2] [s⁻¹]	kon [2] [M⁻¹ s⁻¹]
#44 VH1VK4 humanised hIgG1 (antibody, V domains shown, also called VH1Vκ4) VH: QSVQESGGGLVKPSETLSLTCTVSGIDLSSYAMAWVRQAPGKGLEWIGCIDRRGGTFYASWVKGRFTISKTSTTVDLKMTSLTAEDTATYFCARDSGAFDPWGQGTLVTVSS VL: DIQMTQSPSSLSASVGDRVTITCQASQSVYDNYLAWYQQKPGQPPKLLIHAASNLASGVPSRFSGSGSGTEFTLTISSLQPDDFATYYCLGEFSCTTTDCNVFGGGTKVEIK	no binding (tested: supernatant 1:100)	4.15	1.08	0.0208	5.01e+06
#44 VH2VK1 humanised hIgG1 (antibody, V domains shown, also called VH2Vκ1) VH: QSVQESGPGLVKPSETLSLTCTVSGIDLSSYAMAWVRQAPGKGLEWIGCIDRRGGTFYASWVKGRFTISKTSTTVDLQMTSLTAEDTATYFCARDSGAFDPWGQGTLVTVSS VL: QIVMTQSPSSLSASVGDRVTITCQASQSVYDNYLAWYQQKPGQPPKLLIHAASNLASRVPSRFKGSGSGTEFTLTISSLQCDDFATYYCLGEFSCTTTDCNVFGGGTEVVIK	no binding (tested: supernatant 1:100)	7.94	2.07	0.021	2.64e+06
#44 VH2VK2 humanised hIgG1 (antibody, V domains shown, also called VH2Vκ2) VH: QSVQESGPGLVKPSETLSLTCTVSGIDLSSYAMAWVRQAPGKGLEWIGCIDRRGGTFYASWVKGRFTISKTSTTVDLQMTSLTAEDTATYFCARDSGAFDPWGQGTLVTVSS VL: QIVMTQSPSSLSASVGDRVTITCQASQSVYDNYLAWYQQKPGQPPKLLIHAASNLASGVPSRFKGSGSGTEFTLTISSLQPDDFATYYCLGEFSCTTTDCNVFGGGTKVEIK	no binding (tested: supernatant 1:100)	5	1.31	0.0182	3.63e+06
#44 VH2VK3 humanised hIgG1 (antibody, V domains shown, also called VH2Vκ3) VH: QSVQESGPGLVKPSETLSLTCTVSGIDLSSYAMAWVRQAPGKGLEWIGCIDRRGGTFYASWVKGRFTISKTSTTVDLQMTSLTAEDTATYFCARDSGAFDPWGQGTLVTVSS VL: DIQMTQSPSSLSASVGDRVTITCQASQSVYDNYLAWYQQKPGQPPKLLIHAASNLASGVPSRFKGSGSGTEFTLTISSLQPDDFATYYCLGEFSCTTTDCNVFGGGTKVEIK	no binding (tested: supernatant 1:100)	4.52	1.18	0.0187	4.14e+06
#44 VH2VK4 humanised hIgG1 (antibody, V domains shown, also called VH2Vκ4) VH: QSVQESGPGLVKPSETLSLTCTVSGIDLSSYAMAWVRQAPGKGLEWIGCIDRRGGTFYASWVKGRFTISKTSTTVDLQMTSLTAEDTATYFCARDSGAFDPWGQGTLVTVSS VL: DIQMTQSPSSLSASVGDRVTITCQASQSVYDNYLAWYQQKPGQPPKLLIHAASNLASGVPSRFSGSGSGTEFTLTISSLQPDDFATYYCLGEFSCTTTDCNVFGGGTKVEIK	no binding (tested: supernatant 1:100)	5.33	1.39	0.0195	3.66e+06
